B5: CD45RO ECD (domain or fragment)
chain: QSPTPSPTDAYLNASETTTLSPSGSAVISTTTIATTPSKPTCDEKYANITVDYLYNKETKLFTAKLNVNENVECGNNTCTNNEVHNLTECKNASVSISHNSCTAPDKTLILDVPPGVEKFQLHDCTQVEKADTTICLKWKNIETFTCDTQNITYRFQCGNMIFDNKEIKLENLEPEHEYKCDSEILYNNHKFTNASKIIKTDFGSPGEPQIIFCRSEAAHQGVITWNPPQRSFHNFTLCYIKETEKDCLNLDKNLIKYDLQNLKPYTKYVLSLHAYIIAKVQRNGSAAMCHFTTKSAPPSQVWNMTVSMTSDNSMHVKCRPPRDRNGPHERYHLEVEAGNTLVRNESHKNCDFRVKDLQYSTDYTFKAYFHNGDYPGEPFILHHSTSYNSK

Holding throughout (assay): SPR
(In general: In SPR one partner is held on a chip, and binding of the other changes the refractive index at the surface.)

Experiment [1] deals with T1, SLAMF7 ECD (human, UniProt Q9NQ25 23-226).
T1 chain: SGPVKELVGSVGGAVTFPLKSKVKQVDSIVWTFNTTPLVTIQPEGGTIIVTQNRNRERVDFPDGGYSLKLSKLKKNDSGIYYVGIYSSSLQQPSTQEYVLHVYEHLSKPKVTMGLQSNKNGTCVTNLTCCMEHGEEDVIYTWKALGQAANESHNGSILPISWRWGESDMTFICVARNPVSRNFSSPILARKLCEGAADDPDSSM

Experiment [2] concerns the target T2, SLAMF5 ECD (human, UniProt Q9UIB8 22-225).
T2 chain: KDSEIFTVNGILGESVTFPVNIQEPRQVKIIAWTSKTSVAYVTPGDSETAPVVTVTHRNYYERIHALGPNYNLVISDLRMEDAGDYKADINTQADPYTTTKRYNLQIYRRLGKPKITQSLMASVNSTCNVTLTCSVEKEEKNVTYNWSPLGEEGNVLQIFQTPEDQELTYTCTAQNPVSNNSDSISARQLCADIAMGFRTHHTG

Experiment [3] concerns the target T3, SLAMF6 ECD (human, UniProt Q96DU3 22-226).
T3 chain: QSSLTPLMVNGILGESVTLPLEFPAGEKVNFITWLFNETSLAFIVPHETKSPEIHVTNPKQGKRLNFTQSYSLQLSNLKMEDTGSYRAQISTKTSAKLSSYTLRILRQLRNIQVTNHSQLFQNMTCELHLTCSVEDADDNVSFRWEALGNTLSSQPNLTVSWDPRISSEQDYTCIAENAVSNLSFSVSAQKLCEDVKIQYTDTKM

Experiment [4] concerns the target T4, SLAMF4 ECD (human, UniProt Q9BZW8 22-229).
T4 chain: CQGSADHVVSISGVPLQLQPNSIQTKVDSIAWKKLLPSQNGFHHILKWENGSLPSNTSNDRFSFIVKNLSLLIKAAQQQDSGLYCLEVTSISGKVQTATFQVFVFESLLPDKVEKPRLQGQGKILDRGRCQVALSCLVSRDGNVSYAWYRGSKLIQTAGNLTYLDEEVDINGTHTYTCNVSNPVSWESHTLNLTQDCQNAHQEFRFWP

Experiment [5] deals with B5.
For experiment [6], the target named is T5, SLAMF3 ECD (human, UniProt Q9HBG7 48-454).
T5 chain: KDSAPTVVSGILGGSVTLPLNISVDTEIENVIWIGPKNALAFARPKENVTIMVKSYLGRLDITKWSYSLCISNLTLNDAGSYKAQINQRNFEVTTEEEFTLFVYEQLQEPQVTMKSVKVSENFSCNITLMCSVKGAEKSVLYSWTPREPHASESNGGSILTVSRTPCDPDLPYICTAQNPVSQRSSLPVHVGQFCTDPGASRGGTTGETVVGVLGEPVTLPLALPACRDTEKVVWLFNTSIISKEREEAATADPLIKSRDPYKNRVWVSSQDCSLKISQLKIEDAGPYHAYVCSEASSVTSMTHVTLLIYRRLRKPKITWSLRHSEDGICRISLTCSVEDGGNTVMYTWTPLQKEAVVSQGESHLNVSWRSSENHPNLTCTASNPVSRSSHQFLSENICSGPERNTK

Experiment [7] deals with HAdV-D23 E3/49K (human adenovirus D23).
The target of experiment [8] is HAdV-D53 E3/49K (human adenovirus D53).
Experiment [9] deals with T6, SLAMF1 ECD (human, UniProt Q13291 21-237).
T6 chain: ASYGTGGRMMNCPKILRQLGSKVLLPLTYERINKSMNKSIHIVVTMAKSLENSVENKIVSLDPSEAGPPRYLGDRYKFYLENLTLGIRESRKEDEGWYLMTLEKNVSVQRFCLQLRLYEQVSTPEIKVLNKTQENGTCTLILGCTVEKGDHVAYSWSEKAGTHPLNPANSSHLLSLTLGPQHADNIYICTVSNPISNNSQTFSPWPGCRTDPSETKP

Experiment [10] concerns the target SLAMF8 ECD (human, UniProt Q9P0V8 23-233).

SLAMF8 ECD, sequence (Q9P0V8 23-233): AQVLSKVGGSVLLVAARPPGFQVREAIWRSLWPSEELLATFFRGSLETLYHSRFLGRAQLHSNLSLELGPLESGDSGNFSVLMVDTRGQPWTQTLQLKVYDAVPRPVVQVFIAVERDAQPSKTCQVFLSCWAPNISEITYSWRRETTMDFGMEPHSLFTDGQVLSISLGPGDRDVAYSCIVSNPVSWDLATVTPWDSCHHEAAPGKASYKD

B1: HAdV-A18 CR1α (Fc fusion)
chain: LSPEEEPNCRPPLTNIKVVLSTTHVTLQCKFFSTQLTWTFNGKNVAEANLKYHINKENITLHSPIHLGYYRCFATPCVQAFFLAPVINPRPATTAQPEKITKLISTAIATTATKGTEEIIYFSNFTTNLLLNCSCSNSLISWFANNTFCKAFFQGTTLYSAKLELCNTSTPSNLTLLPPFVAGRYFCIGAGGHPCQRHWKLVFRPTLVLPTSADPTLSPTPNF
As to B1, the Kd in experiment [1] was determined as 137 nM; in experiment [2], 2.1 nM; in experiment [3], 631 nM.

B2: HAdV-F41 CR1β (Fc fusion)
chain: AVPEKTLNNLVRVYALVGTNLSLDSMKTPQIDELTSLSWIKQEDNPNKNLQSFFFIGQKLCEVTKDKITVFNYYPLEFSCANVTLYLYNLKTDDSGLYNGKAHTKELEHNTYVRLYVIDIPPPKCDITSRYLGIQATGEDYCLIEINCTNSKYPAVVKFNGRQSNFYHYVSENGNKELPNFYETHITVNGTHKSFHFNYPFNDLCQTTSALQYNDNVQ
B2 yielded a Kd in experiment [4] of 44 nM.

B3: HAdV-D51 E3/49K (Fc fusion)
chain: LLESKVVKIPYGSTYVLVGPRDPPVQWFGGGDFTMFCNGSKTHLQNIRHTCNEQNLTLLSVGYGHRGDYYGFRHDNTGRKHYKVIIEAPPPVTRKPLSEIKYVNVTMGQNLTLSGPPGTPVTWHGEGHKLCEGKNVFYRELNHTCTEKDLILLFVNRTHNGPYIGYNKEGTDREHYEVSVLDLMPIAGQGLDSKNKEQKIPPKRKSKDKVQEVNFPTGTDQTLIGPPGQKIDWHVSSNDGQFKKLCETKDGKHSCHGRNITIFNISRADEGSYYGSSHDGSSHYKVTVYDKSSFGKAKIKIDPYTTKGTTTENYEFELQQGNDESDDQKQIPSTT
B3 returned a Kd in experiment [5] of 0.06 nM. That is a picomolar value.

B4: HAdV-D30 E3/49K (Fc fusion)
chain: ADPILVSVDWGKNLKLEGPKETPVEWWGGKNIQQLCVGNQTKHKELRHTCNMQNITLLSVNTSFNGDYFGFKNDNSGMKHYKVTVIPPKPTTRKPLPPPHYVNATMGQNLTLVGPANIPVTWLSEFGTLCEGKKILHEELNHTCNEQNLTLLFVNMTHNGPYFGFGKDNVDREQYEVSIISLFKVGAGQKKIDKGQRAEEKTKFNSGDLGRKQSRPKKKDIVDEVQVKSGNNQTLIGPPGKNVDWIKLSSGNDAVVTLCKGDTWIKHTCNGPNVTLINVTKPYEGSYYGSSDDGSSHYKVTVYDLYKSNKSKSKVKPYTTKGTTVNATNANGLKNALQQDGESENDQESKIPSAT
Turning to B4, the dissociation constant Kd in [5] came to 0.19 nM; in experiment [6], 18 nM.
Regarding B5, the results for the Kd in experiment [7] and in experiment [8] were 0.18 nM and 0.21 nM, respectively.

B6: HAdV-A18 CR1β (Fc fusion)
chain: QTAERPLKVVAEAGHNVTLPHLLPGFNKTGHVTWLIEIPDYGSAPSNKFVFSGQKLCEFASKNLTWSFPQLIFKCDNYDITLFWLKIENSAIYNVKNTIEATESNIYYQLTVIQINPPNCIITSKYLTEDYCHITINCTNSRYPNKVIFNNVTRSYYGYAKGSSTLPNYFTTSFNVSGITKTFKHNYPFSELCTYPSSENFYNSKETVST
The molecule B6 registered a Kd in [4] of 62 nM.

B7: HAdV-D9 E3/49K (Fc fusion)
chain: GIINLNVSWGMNLTLVGPSDLPVTWYDGKGMQFCDGNTIKNPQIKHSCNQQNLTLLNADKSHERTYLGYRHDSKGKVDYKVTVIPPPPATRKPLSEPHYVTVTMGDNITLVGPSDLPVTWYDGEGNKFCDGEKVEHAEFNHTCNIQNLTLLFVNLTHNGAYIGYNKDGSDRELYEVSVKTLFQNGAGQSKVEQGNKGKPNTAQSGGKKTKTEHRNQSPKRKSTNNLQPTQLYVRPFTNVSLTGPPNGKVTWYDGELNDPCEQKYKLRTFCNQQNLTLINVSSTYDGIYYGTDEKDKANRYRIKVNTTNHKTVKIKPHTREPPAVQEKQFELQDAETDENESKIPSAT
For B7, the Kd in experiment [5] was 0.08 nM.

B8: HAdV-D39 E3/49K (Fc fusion)
chain: KIDNEDVIGHWGKNITLVGPPEKPIEWHGPRVQLCDGSKILHPEFNHTCNEQNLTLIFLNNSFNGKYYGIRKDGFGMKQYTLKVIAPKASTRRPLSPPQQIDVRMGQNVTLVGPVDTPVNWHGPKHELCRGSQVIHPEVNHTCNEQNLTLLFVNYTFWGAYLGFNRYGTDRVHYEVTIIDGFKNAGQQKDETGQHNPSNKDRPNPKVKNPQRTKNTHKTNTQNKKDIEKDFRKGTNQTLVGPPGSKVDWYEGKNGDLVKLCDGKSGLKVSCNDQNITLINVNETYSGTYYGSNDEDHRQYKVTVYTIPRNETVKIQPHTTKGTTGGSTVNEQFALQQDNDRTNQNDEQIPSTT
In turn, B8 had a Kd in [5] of 0.39 nM. Against the preceding molecule, the Kd is about 4.9-fold higher.

B9: HAdV-B55 CR1β (Fc fusion)
chain: QTVVSIPLGHNYTLIGPPITSEVIWTKLGSVDYFDIICNKTKPIIVTCNIQNLTLINVSKVYSGYYYGYDRYSSQYRNYLVRVTQSKTTKMPNMAEIRSDDNSLETFTSSTTPDEKNIPDS
In [3], B9 came in with a Kd of 13 nM.

B10: HAdV-D47 E3/49K (Fc fusion)
chain: EAETVIVDVKSGTNHTLEGPRKTPVQWYGGADFIMYCNGSKIHHKELNHTCSIQNITLTFINRTHHGTYYGFASDNQNSKVYHVRVDLEPPRPRATLAPPQDITIKYGSNRTLQGPNVTPVSWYDGEGNRFCDGDEIDHPELNHTCNAQNLTLLFVNETHERTYYGVSGDWKQRNEYDVTVIKTQNHKNAMQQKVEQKVEQKPSKRPKQKTLQTTIQVTIPIGSNYTLVGPSPPVSWHTTKNGLTELCNGNPILRHTCDGQNITLINVNATFEADYYGSNNNSESKHYRVKVFKQRKDQALLFRPLTTKGTTGGSTVNEQFALQQGNDKTNQNDEQIPSTT
Molecule B10 showed a Kd in [5] of 0.01 nM.

B11: HAdV-B1 CR1γ (Fc fusion)
chain: RSHLTVPVGSTCTLQGPQEGYVTWWRIYDNGGFARPCDQPGTKFSCNGRDLTIINITSNEQGFYYGTNYKNSLDYNIIVVPATTSAPRKSTFSSSSAKASTIPKTASAMLKLPKIALSNSTAAPNTIPKST
Consider B11, for which the Kd in experiment [6] was determined as 86 nM; in experiment [9], 215 nM; in [10], 60 nM; in experiment [1], 1.5 nM; in experiment [4] it was 280 nM.

A word on the Kd: it is the concentration at which binding is half-saturated. A high value points to a looser complex.

Values taken from PMC4858740 (2016).
